Experiments:
[1] = biological target: the molecule itself; assay: cryo-EM 2D class averages; apo SPY, flash-frozen solution; tetramer formed by side-by-side stacking of two SPY dimers
[2] = biological target: the molecule itself; assay: cryo-EM structure; apo SPY, ~0.8 mg/mL, 25 mM HEPES pH 7.5, 150 mM NaCl, 2 mM DTT; three conformations of the dimer at 3.6 to 3.9 Å
[3] = biological target: T1, Myc-spy Δ216 (deletion of residues 1-216, the N-terminal peptide and TPRs 1-5) (Arabidopsis thaliana, UniProt Q96301 217-914); assay: co-IP; FLAG-RGA co-expressed with Myc-SPY, Myc-spy mutants or Myc-GUS in N. benthamiana; IP with anti-cMyc agarose, blots with αMyc and αFLAG; co-IP'ed FLAG-RGA normalised to the IP'ed Myc protein, WT SPY set as 1; details: partners not purified
T1 construct: source: N. benthamiana, transient expression by agroinfiltration, in protein extract
T1 sequence (looked up): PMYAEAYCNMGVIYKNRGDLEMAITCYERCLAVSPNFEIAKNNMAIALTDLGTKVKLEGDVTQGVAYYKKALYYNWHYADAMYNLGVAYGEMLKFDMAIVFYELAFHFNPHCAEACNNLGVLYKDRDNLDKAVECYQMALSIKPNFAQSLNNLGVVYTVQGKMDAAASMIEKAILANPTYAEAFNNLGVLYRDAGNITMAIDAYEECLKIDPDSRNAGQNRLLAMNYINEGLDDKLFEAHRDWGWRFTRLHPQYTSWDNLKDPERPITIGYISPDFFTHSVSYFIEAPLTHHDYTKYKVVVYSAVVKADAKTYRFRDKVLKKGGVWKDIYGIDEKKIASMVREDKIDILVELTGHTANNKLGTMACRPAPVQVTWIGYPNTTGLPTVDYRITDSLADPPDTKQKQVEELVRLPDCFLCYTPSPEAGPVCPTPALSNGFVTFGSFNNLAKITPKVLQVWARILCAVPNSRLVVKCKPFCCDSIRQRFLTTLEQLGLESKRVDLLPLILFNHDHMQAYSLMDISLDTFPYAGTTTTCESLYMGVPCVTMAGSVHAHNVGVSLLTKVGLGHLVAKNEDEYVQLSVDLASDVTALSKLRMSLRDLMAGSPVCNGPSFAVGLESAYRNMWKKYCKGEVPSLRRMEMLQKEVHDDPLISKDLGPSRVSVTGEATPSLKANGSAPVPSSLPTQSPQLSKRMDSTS

B1: Recombinant full-length Arabidopsis thaliana SPINDLY (SPY-WT-TEV-His10-Strep) (enzyme, UniProt Q96301 1-914, looked up)
chain: MVGLEDDTERERSPVVENGFSNGSRSSSSSAGVLSPSRKVTQGNDTLSYANILRARNKFADALALYEAMLEKDSKNVEAHIGKGICLQTQNKGNLAFDCFSEAIRLDPHNACALTHCGILHKEEGRLVEAAESYQKALMADASYKPAAECLAIVLTDLGTSLKLAGNTQEGIQKYYEALKIDPHYAPAYYNLGVVYSEMMQYDNALSCYEKAALERPMYAEAYCNMGVIYKNRGDLEMAITCYERCLAVSPNFEIAKNNMAIALTDLGTKVKLEGDVTQGVAYYKKALYYNWHYADAMYNLGVAYGEMLKFDMAIVFYELAFHFNPHCAEACNNLGVLYKDRDNLDKAVECYQMALSIKPNFAQSLNNLGVVYTVQGKMDAAASMIEKAILANPTYAEAFNNLGVLYRDAGNITMAIDAYEECLKIDPDSRNAGQNRLLAMNYINEGLDDKLFEAHRDWGWRFTRLHPQYTSWDNLKDPERPITIGYISPDFFTHSVSYFIEAPLTHHDYTKYKVVVYSAVVKADAKTYRFRDKVLKKGGVWKDIYGIDEKKIASMVREDKIDILVELTGHTANNKLGTMACRPAPVQVTWIGYPNTTGLPTVDYRITDSLADPPDTKQKQVEELVRLPDCFLCYTPSPEAGPVCPTPALSNGFVTFGSFNNLAKITPKVLQVWARILCAVPNSRLVVKCKPFCCDSIRQRFLTTLEQLGLESKRVDLLPLILFNHDHMQAYSLMDISLDTFPYAGTTTTCESLYMGVPCVTMAGSVHAHNVGVSLLTKVGLGHLVAKNEDEYVQLSVDLASDVTALSKLRMSLRDLMAGSPVCNGPSFAVGLESAYRNMWKKYCKGEVPSLRRMEMLQKEVHDDPLISKDLGPSRVSVTGEATPSLKANGSAPVPSSLPTQSPQLSKRMDSTS
modifications: fully auto-O-fucosylated (sites not mapped for the insect-cell protein)
notes: SPINDLY (SPY), Arabidopsis thaliana, full length (101.4 kDa), UniProt Q96301; The tag end is read from the construct name SPY-WT-TEV-His10-Strep; A TEV site lies between SPY and the tags; no cleavage is described; also called WT SPY; apo SPY; source: Trichoplusia ni (High Five) insect cells, baculovirus, purified (Talon, Strep-Tactin, SEC)
[1]
  stoichiometry N: 4
[2]
  stoichiometry N: 2

B2: FLAG-RGA (35S:FLAG-RGA, pEG100-3xFR; contains a 6xHis-3xFLAG tag) (natural protein, Arabidopsis, UniProt Q9SLH3 1-587, looked up)
chain: MKRDHHQFQGRLSNHGTSSSSSSISKDKMMMVKKEEDGGGNMDDELLAVLGYKVRSSEMAEVALKLEQLETMMSNVQEDGLSHLATDTVHYNPSELYSWLDNMLSELNPPPLPASSNGLDPVLPSPEICGFPASDYDLKVIPGNAIYQFPAIDSSSSSNNQNKRLKSCSSPDSMVTSTSTGTQIGGVIGTTVTTTTTTTTAAGESTRSVILVDSQENGVRLVHALMACAEAIQQNNLTLAEALVKQIGCLAVSQAGAMRKVATYFAEALARRIYRLSPPQNQIDHCLSDTLQMHFYETCPYLKFAHFTANQAILEAFEGKKRVHVIDFSMNQGLQWPALMQALALREGGPPTFRLTGIGPPAPDNSDHLHEVGCKLAQLAEAIHVEFEYRGFVANSLADLDASMLELRPSDTEAVAVNSVFELHKLLGRPGGIEKVLGVVKQIKPVIFTVVEQESNHNGPVFLDRFTESLHYYSTLFDSLEGVPNSQDKVMSEVYLGKQICNLVACEGPDRVERHETLSQWGNRFGSSGLAPAHLGSNAFKQASMLLSVFNSGQGYRVEESNGCLMLGWHTRPLITTSAWKLSTAAY
notes: RGA, an Arabidopsis DELLA protein; called the full-length RGA substrate in planta; RGA is O-fucosylated by the co-expressed SPY to differing degrees; also called His-FLAG-RGA; source: N. benthamiana, transient expression by agroinfiltration, in protein extract
[3]
  fold change of co-IP'ed FLAG-RGA against WT SPY: 6.3 fold
